Measured values as given in US20240270846A1 (published 2024).
Where a chain is given by its changes, count along the chain named. Numbers in names are those of the source.

T1: cynomolgus monkey CD137 (cynomolgus monkey, UniProt Q07011 24-186 (human entry), limits assumed)
T1 construct: Soluble analyte in the Biacore assay; also called cyno CD137
T1 chain: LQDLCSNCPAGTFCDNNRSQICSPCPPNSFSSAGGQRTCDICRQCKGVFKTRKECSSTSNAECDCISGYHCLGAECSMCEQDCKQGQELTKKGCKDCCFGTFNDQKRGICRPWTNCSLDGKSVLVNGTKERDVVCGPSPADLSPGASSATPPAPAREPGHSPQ

B1: GLS3000 T92Y one-amino acid altered one-arm antibody (CE115HA000-pE22Hh / Kn010G3 / GLS3000 T92Y-kappa) (antibody, human IgG1, kappa, L234A L235A, N297A, name in Kabat numbering)
heavy: QVQLVESGGGVVQPGRSLRLSCAASGFTFSNAWMHWVRQAPGKGLEWVAQIKAKSNNYATYYAESVKGRFTISRDDSKNSLYLQMNSLKTEDTAVYYCRYVHYGAYYGVDAWGQGTTVTVSSASTKGPSVFPLAPSSKSTSGGTAALGCLVKDYFPEPVTVSWNSGALTSGVHTFPAVLQSSGLYSLSSVVTVPSSSLGTQTYICNVNHKPSNTKVDKKVEPKSCDKTHTCPPCPAPEAAGGPSVFLFPPKPKDTLMISRTPEVTCVVVDVSHEDPEVKFNWYVDGVEVHNAKTKPREEQYASTYRVVSVLTVLHQDWLNGKEYKCKVSNKALPAPIEKTISKAKGQPREPQVYTLPPSRCELTKNQVSLSCAVKGFYPSDIAVEWESNGQPENNYKTTPPVLDSDGSFFLVSKLTVDKSRWQQGNVFSCSVMHEALHNHYTQKSLSLSPDYKDDDDK
chain: EPKSSDKTHTCPPCPAPELLGGPSVFLFPPKPKDTLMISRTPEVTCVVVDVSHEDPEVKFNWYVDGVEVHNAKTKPREEQYNSTYRVVSVLTVLHQDWLNGKEYKCKVSNKALPAPIEKTISKAKGQPREPQVCTLPPSRDELTKNQVSLWCLVKGFYPSDIAVEWESNGQPENNYKTTPPVLDSDGSFFLYSKLTVDKSRWQQGNVFSCSVMHEALHNRYTQKSLSLSP
light: DIVMTQSPLSLPVTPGEPASISCRSSQSLVHSNRNTYLHWYQQKPGQAPRLLIYKVSNRFSGVPDRFSGSGSGTDFTLKISRVEAEDVGVYYCGQGYQVPYTFGQGTKLEIKRTVAAPSVFIFPPSDEQLKSGTASVVCLLNNFYPREAKVQWKVDNALQSGNSQESVTEQDSKDSTYSLSSTLTLSKADYEKHKVYACEVTHQGLSSPVTKSFNRGEC
notes: One-arm antibody; substitution position in Kabat numbering; also called L chain altered form, Kabat 92 T to Y
B2: GLS3000 V94T one-amino acid altered one-arm antibody (CE115HA000-pE22Hh / Kn010G3 / GLS3000 V94T-kappa) (antibody, human IgG1, kappa, L234A L235A, N297A, name in Kabat numbering)
heavy: B1 heavy
chain: B1 chain
light: B1 light with Y97T, V99T
notes: One-arm antibody; substitution position in Kabat numbering; also called L chain altered form, Kabat 94 V to T
B3: GLS3000 Q93R one-amino acid altered one-arm antibody (CE115HA000-pE22Hh / Kn010G3 / GLS3000 Q93R-kappa) (antibody, human IgG1, kappa, L234A L235A, N297A, name in Kabat numbering)
heavy: B1 heavy
chain: B1 chain
light: B1 light with Y97T, Q98R
notes: One-arm antibody; substitution position in Kabat numbering; also called L chain altered form, Kabat 93 Q to R
B4: dBBDu_186 / dBBDu_L098 (antibody, human IgG1, V domains shown)
VH: QVQLVESGGGLVQPGRSLRLSCAASGFTFSNAWMHWVRQAPGKGLEWVAQIKDRSNQYATYYAPSVKGRFTISRDDSKNSIYLQMNSLKTEDTAVYYCHYVHYAQASTVLPAFGVDAWGQGTTVTVSS
VL: DIVMTQSPLSLPVTPGEPASISCAASEELVHINRYIFLHWYQQKPGQAPRLLIYKVSNRFIGVPDRFSGSGSGTDFTLKISRVEAEDVGVYYCAQGSQVPFTFGQGTKLEIK
notes: Tested as IgG (human IgG1 constant region, kappa light chain); also called dBBDu186/L098
B5: dBBDu_193 / dBBDu.L132 (antibody, human IgG1, V domains shown)
VH: B4 VH with A104S, Q105A, V109L, A112S
VL: B4 VL with A24Q, A25T, Y35F, I61S, S97T, Q98S
notes: Tested as IgG (human IgG1 constant region, kappa light chain); also called dBBDu193/L132; dBBDu_193/L132
B6: dBBDu_186 / dBBDu_L100 (antibody, human IgG1, V domains shown)
VH: B4 VH
VL: B4 VL with A24S, S57Y, I61M, A94G, Q98S
notes: Tested as IgG (human IgG1 constant region, kappa light chain); also called dBBDu186/L100
B7: dBBDu_189 / dBBDu_L126 (antibody, human IgG1, V domains shown)
VH: B4 VH with V48I, T108S, V109L, A112S
VL: B4 VL with A24R, A25T, V30L, S57Q, I61S, Q98A
notes: Tested as IgG (human IgG1 constant region, kappa light chain); also called dBBDu189/L126
B8: dBBDu_189 / dBBDu_L119 (antibody, human IgG1, V domains shown)
VH: B4 VH with V48I, T108S, V109L, A112S
VL: B4 VL with A24T, E27Q, Y35F
notes: Tested as IgG (human IgG1 constant region, kappa light chain); also called dBBDu189/L119
B9: dBBDu_167 / dBBDu.L094 (antibody, human IgG1, V domains shown)
VH: B4 VH with R54K, S55G, Q57L, T60A, Q105S, S107G, T108G, V109G, A112G
VL: B4 VL with A24Y, V30L, Y35H, F37Y, S57Y, I61N, Q98S
notes: Tested as IgG (human IgG1 constant region, kappa light chain); also called dBBDu167/L094; dBBDu_167/L094
B10: dBBDu_186 / dBBDu_L108 (antibody, human IgG1, V domains shown)
VH: B4 VH
VL: B4 VL with A24R, A25T, V30L, Y35F, I36T, I61M, Q98A
notes: Tested as IgG (human IgG1 constant region, kappa light chain); also called dBBDu186/L108
B11: dBBDu_193 / dBBDu.L127 (antibody, human IgG1, V domains shown)
VH: B4 VH with A104S, Q105A, V109L, A112S
VL: B4 VL with A24R, V30L, Y35H, S57Y, I61T, S97T, Q98S
notes: Tested as IgG (human IgG1 constant region, kappa light chain); also called dBBDu193/L127; dBBDu_193/L127
B12: dBBDu_186 / dBBDu_L106 (antibody, human IgG1, V domains shown)
VH: B4 VH
VL: B4 VL with A24S, A25T, V30L, Y35F, S57A, I61M
notes: Tested as IgG (human IgG1 constant region, kappa light chain); also called dBBDu186/L106

Target: T2, CD3 epsilon homodimer protein (UniProt P07766 23-126)
T2 construct: also called CD3 (CD3 epsilon)
T2 sequence (P07766 23-126): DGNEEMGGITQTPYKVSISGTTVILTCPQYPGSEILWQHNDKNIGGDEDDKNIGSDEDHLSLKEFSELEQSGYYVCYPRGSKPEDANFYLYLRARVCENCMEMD
Assay: SPR Biacore T200, CD3 epsilon homodimer immobilised on CM4, one-arm antibody as analyte, single-cycle kinetics; reference unaltered GLS3000 antibody;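 also: CD3 epsilon homodimer attached to the CM4 chip via amine coupling, measured at 25 °C with HBS-EP+ as running buffer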

Binder | dissociation constant KD(M) ratio of L chain altered form to GLS3000 [ratio]
B1 | 2.55
B2 | 1.06
B3 | 0.79

Target: T1, cynomolgus monkey CD137
Assay: SPR Biacore T200, IgG captured on protein A, antigen as analyte, 25 C;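 also: antigens flowed over a CM3 chip for 120 s association, KD derived from ka and kd, running buffer (ACES, NaCl, Tween20, pH 7.4) served as blank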
Experimental: (§1) Sensor chip CM3 (GE Healthcare) was immobilized with an appropriate amount of sure protein A (GE Healthcare) by amine coupling. The selected antibodies were captured by the chip to allow interaction to human CD3ed, human CD137 and cyno CD137 as an antigen. The running buffer used was 20 mmol/l ACES, 150 mmol/l NaCl, 0.05% (w/v) Tween20, pH 7.4. All measurements were carried out at 25 degrees C. The antigens were diluted using the running buffer.
(§2) Diluted antigen solutions and the running buffer which is the blank were loaded at a flow rate of 30 micro L/min for 120 seconds to allow each of the antigens to interact with the antibody captured on the sensor chip. […] Next, to regenerate the sensor chip, 10 mmol/L glycine-HCl, pH 1.5 was loaded at a flow rate of 30 micro L/min for 30 seconds and 50 mmol/L NaOH was loaded at a flow rate 30 micro L/min for 30 seconds.
(§3) Kinetic parameters such as the association rate constant ka (1/Ms) and the dissociation rate constant kd (1/s) were calculated based on the sensorgrams obtained by the measurements. The dissociation constant KD(M) was calculated from these constants. Each parameter was calculated using the Biacore T200 Evaluation Software (GE Healthcare).

Binder | Kd [µM] | koff [s⁻¹] | kon [M⁻¹ s⁻¹]
B4 | 134 | 0.00119 | 
B5 | 757 | 0.0061 | 
B6 | 70.4 | 0.00208 | 
B7 | 3.06 | 0.00247 | 807
B8 | 35.7 | 0.00122 | 
B9 | 6.92 | 0.0748 | 10800
B10 | 16.1 | 0.00361 | 225
B11 | 28.1 | 0.00316 | 112
B12 | 61.3 | 0.00126 | 

Target: T3, human CD3ed (human, UniProt P07766 23-126; P04234 22-105, limits assumed)
T3 construct: The construct injected as 'human CD3ed' in the Biacore assay is not defined; also called human CD3 epsilon/delta heterodimer
T3 sequence (P07766 23-126 limits assumed, chain 1 of 2): as the sequence (P07766 23-126) above
T3 sequence (P04234 22-105 limits assumed, chain 2 of 2): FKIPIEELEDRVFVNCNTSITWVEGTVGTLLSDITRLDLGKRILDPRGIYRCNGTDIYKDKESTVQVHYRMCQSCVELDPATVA
Assay: as above
Experimental: as §1, §2, §3

Binder | Kd [µM] | koff [s⁻¹] | kon [M⁻¹ s⁻¹]
B4 | 1.88 | 0.0209 | 11100
B5 | 2.03 | 0.0201 | 9890
B6 | 3.36 | 0.0546 | 16200
B7 | 2.57 | 0.0281 | 10900
B8 | 2.06 | 0.0258 | 12500
B9 | 0.349 | 0.021 | 60200
B10 | 3.01 | 0.0408 | 13600
B11 | 1.51 | 0.0191 | 12600
B12 | 3.09 | 0.0318 | 10300

Target: T4, human CD137 (human, UniProt Q07011 24-186)
T4 construct: Soluble analyte in the Biacore assay; also called 4-1BB; hCD137
T4 sequence (Q07011 24-186 limits assumed): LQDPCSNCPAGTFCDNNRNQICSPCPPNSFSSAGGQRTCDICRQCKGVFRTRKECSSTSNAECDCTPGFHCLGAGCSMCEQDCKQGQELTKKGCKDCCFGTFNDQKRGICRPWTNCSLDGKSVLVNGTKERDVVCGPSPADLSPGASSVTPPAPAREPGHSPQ
Assay: as above
Experimental: as §1, §2, §3

Binder | Kd [µM] | koff [s⁻¹] | kon [M⁻¹ s⁻¹]
B4 | 2.31 | 0.000534 | 231
B5 | 4.48 | 0.00211 | 471
B6 | 1.91 | 0.000746 | 391
B7 | 0.513 | 0.000688 | 1340
B8 | 2.71 | 0.000402 | 148
B9 | 8.43 | 0.0102 | 1210
B10 | 2.41 | 0.00081 | 335
B11 | 3.3 | 0.00145 | 440
B12 | 3.44 | 0.000447 | 130
